Biological target: OGG1 (UniProt O15527)
Test: co-IP, Western blot
Conditions: reference: wild type, KBrO3; sites S46,S53

binding against the reference: weaker
Substance: SIRT2 (from UniProt Q8IXJ6) S46AS53A, KBrO3
